Data as given in EP2033655B1.
Ends that are not written are not given here.

Molecular target: Cell-surface expressed nucleolin (on THP-1 monocytic cells; on HeLa P4 cells) (human), P19338
Assay: cell-based or functional assay

Chain of Cell-surface expressed nucleolin (on THP-1 monocytic cells; on HeLa P4 cells) (human), P19338 (P19338 2-710 limits assumed): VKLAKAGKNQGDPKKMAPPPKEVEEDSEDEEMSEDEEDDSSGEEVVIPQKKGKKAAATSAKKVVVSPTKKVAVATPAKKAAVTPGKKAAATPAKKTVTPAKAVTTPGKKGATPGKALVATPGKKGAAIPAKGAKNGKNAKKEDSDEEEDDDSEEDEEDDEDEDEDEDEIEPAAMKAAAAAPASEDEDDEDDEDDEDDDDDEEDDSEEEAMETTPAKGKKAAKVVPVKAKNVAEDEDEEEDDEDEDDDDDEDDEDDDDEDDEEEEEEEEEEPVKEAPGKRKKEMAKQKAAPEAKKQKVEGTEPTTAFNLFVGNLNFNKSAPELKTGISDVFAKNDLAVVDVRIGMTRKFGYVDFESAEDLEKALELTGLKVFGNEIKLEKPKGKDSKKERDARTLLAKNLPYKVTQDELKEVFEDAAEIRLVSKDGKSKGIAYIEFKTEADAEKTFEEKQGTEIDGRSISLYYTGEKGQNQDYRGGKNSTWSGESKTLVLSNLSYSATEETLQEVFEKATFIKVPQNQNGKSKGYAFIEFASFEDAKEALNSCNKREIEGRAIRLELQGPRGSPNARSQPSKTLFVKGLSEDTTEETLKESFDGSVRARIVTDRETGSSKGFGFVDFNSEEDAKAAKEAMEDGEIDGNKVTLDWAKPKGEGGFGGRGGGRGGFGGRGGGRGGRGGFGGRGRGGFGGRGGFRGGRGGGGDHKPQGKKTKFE

B1: HB-19 pseudopeptide, 5[Lys (CH2N)Pro-Arg]-template-assembled synthetic peptide (peptide)
chain: KKKGPKEK
peptide: Lys-Pro-Arg
modifications: also: Lys (CH2N)Pro reduced bond, five Lys-Pro-Arg units assembled on template
In the case of B1, the level of infection of THP-1 cells, HB-19 together with anti-CR3 Mab is reported as 95%.
